Source: article PMC8510540 (2021)

Assays:
[1] = molecular target: HIV-1_(YU-2) gp140 trimer (HIV-1 YU-2); assay: BLI; kinetic
[2] = molecular target: HIV-1_(YU-2) gp140 trimer (HIV-1 YU-2); assay: BLI; equilibrium

B1: IgG1 b12 EFTAE Fc variant (antibody, V domains shown)
VH: QVQLVQSGAEVKKPGASVKVSCQASGYRFSNFVIHWVRQAPGQRFEWMGWINPYNGNKEFSAKFQDRVTFTADTSANTAYMELRSLRSADTAVYYCARVGPYSWDDSPQDNYYMDVWGKGTTVIVSS
VL: EIVLTQSPGTLSLSPGERATFSCRSSHSIRSRRVAWYQHKPGQAPRLVIHGVSNRASGISDRFSGSGSGTDFTLTITRVEPEDFALYYCQVYGASSYTFGQGTKLERK
With B1 as the binder, how does the Kd [1] read?
Its Kd is 2.78 nM.

And the Kd [2]?
The Kd was 1.93 nM.

B2: IgG1 b12 KA Fc variant (antibody, V domains shown)
VH: QVQLVQSGAEVKKPGASVKVSCQASGYRFSNFVIHWVRQAPGQRFEWMGWINPYNGNKEFSAKFQDRVTFTADTSANTAYMELRSLRSADTAVYYCARVGPYSWDDSPQDNYYMDVWGKGTTVIVSS
VL: EIVLTQSPGTLSLSPGERATFSCRSSHSIRSRRVAWYQHKPGQAPRLVIHGVSNRASGISDRFSGSGSGTDFTLTITRVEPEDFALYYCQVYGASSYTFGQGTKLERK
With B2 as the binder, how does the Kd [1] read?
The Kd was 2.56 nM.

What about the Kd [2] of the same binder?
Its Kd is 2.95 nM.

B3: IgG1 b12 EG Fc variant (antibody, V domains shown)
VH: QVQLVQSGAEVKKPGASVKVSCQASGYRFSNFVIHWVRQAPGQRFEWMGWINPYNGNKEFSAKFQDRVTFTADTSANTAYMELRSLRSADTAVYYCARVGPYSWDDSPQDNYYMDVWGKGTTVIVSS
VL: EIVLTQSPGTLSLSPGERATFSCRSSHSIRSRRVAWYQHKPGQAPRLVIHGVSNRASGISDRFSGSGSGTDFTLTITRVEPEDFALYYCQVYGASSYTFGQGTKLERK
What does the source list for B3?
Kd [1]: 2.26 nM; Kd [2]: 0.9 nM

B4: IgG1 b12 (unmodified Fc) (antibody, V domains shown)
VH: QVQLVQSGAEVKKPGASVKVSCQASGYRFSNFVIHWVRQAPGQRFEWMGWINPYNGNKEFSAKFQDRVTFTADTSANTAYMELRSLRSADTAVYYCARVGPYSWDDSPQDNYYMDVWGKGTTVIVSS
VL: EIVLTQSPGTLSLSPGERATFSCRSSHSIRSRRVAWYQHKPGQAPRLVIHGVSNRASGISDRFSGSGSGTDFTLTITRVEPEDFALYYCQVYGASSYTFGQGTKLERK
Which Kd [1] does the source give for B4 here?
The Kd was 1.72 nM.

And the Kd [2]?
The Kd was 2.18 nM.

B5: IgG1 b12 LALA Fc variant (antibody, V domains shown)
VH: QVQLVQSGAEVKKPGASVKVSCQASGYRFSNFVIHWVRQAPGQRFEWMGWINPYNGNKEFSAKFQDRVTFTADTSANTAYMELRSLRSADTAVYYCARVGPYSWDDSPQDNYYMDVWGKGTTVIVSS
VL: EIVLTQSPGTLSLSPGERATFSCRSSHSIRSRRVAWYQHKPGQAPRLVIHGVSNRASGISDRFSGSGSGTDFTLTITRVEPEDFALYYCQVYGASSYTFGQGTKLERK
What does the source list for B5?
Kd [1]: 2.06 nM; Kd [2]: 2.04 nM
